6 molecules from patent publication US20100330089A1 (Pfizer, published 2010) can be followed below.

The target in assay [1] is T1, Human CD20 (human) (UniProt P11836).
T1 sequence: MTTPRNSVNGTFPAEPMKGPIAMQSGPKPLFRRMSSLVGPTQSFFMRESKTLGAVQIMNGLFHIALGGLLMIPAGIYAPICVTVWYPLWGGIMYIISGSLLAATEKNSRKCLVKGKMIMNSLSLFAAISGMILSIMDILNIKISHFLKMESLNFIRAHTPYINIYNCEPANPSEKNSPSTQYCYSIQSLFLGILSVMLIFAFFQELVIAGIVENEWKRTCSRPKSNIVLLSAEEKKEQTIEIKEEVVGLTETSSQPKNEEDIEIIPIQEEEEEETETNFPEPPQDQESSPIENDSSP
Kind of assay: cell-based or functional assay.

Assay [2] has as its target T1, Human CD20 (human). Briefly: flow cytometry on primary human B cells, binder at 10 ug/ml (first block).
Assay [3] has as its target T1, Human CD20 (human). Kind of assay: flow cytometry on primary human B cells, binder at 1.1 ug/ml (first block).
Assay [4] deals with T1, Human CD20 (human). Kind of assay: flow cytometry on primary human B cells, binder at 10 ug/ml (second block).
Assay [5] concerns the target T1, Human CD20 (human). Briefly: flow cytometry on primary human B cells, binder at 0.12 ug/ml (first block).
Assay [6] addresses T1, Human CD20 (human). Briefly: flow cytometry on primary human B cells, binder at 0.37 ug/ml (first block).
Assay [7] concerns the target T1, Human CD20 (human). Kind of assay: flow cytometry on primary human B cells, binder at 1.1 ug/ml (second block).
Assay [8] has as its target T1, Human CD20 (human). Briefly: flow cytometry on primary human B cells, binder at 0.04 ug/ml (second block).
Assay [9] addresses T1, Human CD20 (human). Kind of assay: flow cytometry on primary human B cells, binder at 0.12 ug/ml (second block).
In another assay the target is CD20 (primary B cells) (UniProt P11836). Briefly: flow cytometry. The conditions noted are these: Fc fusion.
Assay [10] addresses T2, Human CD20 (human, UniProt P11836 1-297).
T2 construct: also called Bp35
T2 sequence: T1 sequence
Briefly: cell-based or functional assay.

In assay [11] the target is T2, Human CD20. Briefly: flow cytometry on primary human B cells, binder at 10 ug/ml (first block).
Assay [12] concerns the target T2, Human CD20. Briefly: flow cytometry on primary human B cells, binder at 10 ug/ml (second block).
The target of assay [13] is T2, Human CD20. Kind of assay: flow cytometry on primary human B cells, binder at 0.12 ug/ml (first block).
The target of assay [14] is T2, Human CD20. Kind of assay: flow cytometry on primary human B cells, binder at 1.1 ug/ml (second block).
The target of assay [15] is T2, Human CD20. Kind of assay: flow cytometry on primary human B cells, binder at 0.04 ug/ml (second block).
Assay [16] deals with T2, Human CD20. Kind of assay: flow cytometry on primary human B cells, binder at 0.12 ug/ml (second block).
Assay [17] addresses T2, Human CD20. Briefly: flow cytometry on five human B-lymphoma cell lines. On the procedure:
(§1) Each of these cell lines was derived from a distinct non-Hodgkin's B-cell lymphoma patient. Briefly, increasing concentrations of CD20-binders were incubated with 100,000 BCL for 30 min at 4° C. Cells were then washed twice with PBS containing 1% BSA to remove unbound antibody and then a FITC labeled goat anti-human (H+ L) secondary antibody (100 fold diluted) was added for 30 min at 4° C. The cells were again washed twice to remove unbound secondary antibody and then resuspended in 1% formaldehyde (in PBS) with 1% BSA. Fluorescence intensity of each sample was measured using a Becton Dickinson FACSORT flow cytometer. Results are expressed as the geometric mean (GeoMean) of the fluorescent intensity.

The target in assay [18] is T2, Human CD20. Briefly: flow cytometry on NU-DHL1, Ramos, SU-DHL4, SU-DHL5 and WSU-DLCL2 cells; confirmed by immunofluorescence on Ramos and WSU-DLCL2. On the procedure:
as §1

For RITUXAN (rituximab) (antibody), in the assay with Human CD20 (human) [1], the % lysis (CDC on Ramos cells), 0.12 ug/ml turned out to be 56.5 % lysis; the % lysis (CDC on Ramos cells), 0.37 ug/ml is 60.2 % lysis; the % lysis (CDC on Ramos cells), 1.1 ug/ml was 57.1 % lysis; the % lysis (CDC on Ramos cells), 10 ug/ml is 82.5 % lysis. In the assay with Human CD20 (human) [1], this molecule came in with a % lysis (CDC on Ramos cells), 1 nm of 67.6 % lysis; a % lysis (CDC on Ramos cells), 4 nm of 65.1 % lysis; a % lysis (CDC on Ramos cells), 11 nm of 66.3 % lysis; a % lysis (CDC on Ramos cells), 100 nm of 81.9 % lysis. Moreover, the MFI with Human CD20 (human) [2] turned out to be 199 MFI. The molecule further came in with an MFI with Human CD20 (human) [3] of 173 MFI. In the assay with Human CD20 (human) [4], this molecule yielded an MFI of 172 MFI. This molecule also had an MFI in the assay with Human CD20 (human) [5] of 106 MFI. In addition, the MFI with Human CD20 (human) [6] is 137 MFI. The MFI in the assay with Human CD20 (human) [7] stood at 93 MFI. Further, in the assay with Human CD20 (human) [8], the MFI turned out to be 43.1 MFI. The molecule further gave an MFI with Human CD20 (human) [9] of 82.3 MFI.

TRU-015: in the assay with CD20 (primary B cells), the EC50 is 0.279 µg/mL.

TRU-015 (Fc fusion): in the assay with Human CD20 [10], the % lysis (CDC on Ramos cells), 0.12 ug/ml turned out to be 16.3 % lysis; the % lysis (CDC on Ramos cells), 0.37 ug/ml came to 38.8 % lysis; the % lysis (CDC on Ramos cells), 1.1 ug/ml is 56.1 % lysis; the % lysis (CDC on Ramos cells), 10 ug/ml was 67.7 % lysis. Besides, in the assay with Human CD20 [10], the % lysis (CDC on Ramos cells), 1 nm was determined as 19.8 % lysis; the % lysis (CDC on Ramos cells), 4 nm came to 26.2 % lysis; the % lysis (CDC on Ramos cells), 11 nm was determined as 49.7 % lysis; the % lysis (CDC on Ramos cells), 100 nm came to 86.1 % lysis. In addition, in the assay with Human CD20 [11], the MFI is 149 MFI. Moreover, the MFI in the assay with Human CD20 [12] turned out to be 124 MFI. The molecule also showed an MFI with Human CD20 [13] of 42.8 MFI. For the same molecule, in the assay with Human CD20 [14], the MFI came to 53.4 MFI. Besides, the MFI in the assay with Human CD20 [15] worked out at 19.9 MFI. This molecule came in with an MFI in the assay with Human CD20 [16] of 31.4 MFI.

B1: 2Lm20-4 (Fc fusion, not shown: a dimerising Fc or GST)
chain: EIVLTQSPATLSLSPGERATLSCRASSSVSYIVWYQQKPGQAPRLLIYAPSNLASGIPARFSGSGSGTDFTLTISSLEPEDFAVYYCQQWSFNPPTFGQGTKVEIKDGGGSGGGGSGGGGSSQVQLVQSGAEVKKPGASVKVSCKASGYTFTSYNMHWVRQAPGQGLEWMGAIYPGNGDTSYNQKFKGRVTMTRDTSTSTVYMELSSLRSEDTAVYYCARSYYSNSYWYFDLWGRGTLVTVSS
notes: Humanized SMIP as named without a hinge suffix
Consider B1, for which the binding result with Human CD20 [17] was “binds”.

B2: 018011 (Fc fusion)
chain: EIVLTQSPATLSLSPGERATLSCRASQSVSYIVWYQQKPGQAPRLLIYAPSNLASGIPARFSGSGSGTDFTLTISSLEPEDFAVYYCQQWSFNPPTFGQGTKVEIKDGGGSGGGGSGGGGTGEVQLVQSGAEVKKPGESLKISCKGSGYSFTSYNMHWVRQMPGKGLEWMGAIYPGNGDTSYNQKFKGQVTISADKSISTAYLQWSSLKASDTAMYYCARSYYSNSYWYFDLWGRGTLVTVSS
notes: not shown: called human IgG1
With B2, the binding result in the assay with Human CD20 [18] is recorded as “binds”.

B3: 018008 (Fc fusion, not shown: a dimerising Fc or GST)
chain: EIVLTQSPATLSLSPGERATLSCRASQSVSYMHWYQQKPGQAPRLLIYAPSNLASGIPARFSGSGSGTDFTLTISSLEPEDFAVYYCQQWSFNPPTFGQGTKVEIKDGGGSGGGGSGGGGTGEVQLVQSGAEVKKPGESLKISCKGSGYSFTSYNMHWVRQMPGKGLEWMGAIYPGNGDTSYNQKFKGQVTISADKSISTAYLQWSSLKASDTAMYYCARVVYYSNSYWYFDLWGRGTLVTVSS
notes: as for B1
As for B3, the binding result with Human CD20 [17] was “binds”.
